Experimental data published in a protein production outcome set (Wang et al. 2014).

Assay: label from the status in PepcDB records
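Note: failed if final PepcDB status was selected cloned or expressed and not failed if soluble or beyond.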

With “MKLKTKTMEWSGNSLKLLDQRKLPFIEEYVECKTHEEVAHAIKEMIVRGAPAIGVAAAFGYVLGLRDYKTGSLTDWMKQVKETLARTRPTAVNLFWALNRMEKVFFENADRENLFEILENEALKMAYEDIEVNKAIGKNGAQLIKDGSTILTHCNAGALATVDYGTALGVIRAAVESGKRIRVFADETRPYLQGARLTAWELMKDGIEVYVITDNMAGWLMKRGLIDAVVVGADRIALNGDTANKIGTYSLAVLAKRNNIPFYVAAPVSTIDPTIRSGEEIPIEERRPEEVTHCGGNRIAPEGVKVLNPAFDVTENTLITAIITEKGVIRPPFEENIKKILEV” the protein production was “not failed”.
For “MKLKTRICKKNSIRNSEKVEESSKSTTNCPLSCVDWSSNEEIYFVSDDHQIFKWSDVSRDSVEVAKLPDDFVPTDMHWLLLGGRSSGGGKGSDTLLICSNDGRFVILNKSARVERSISAHAAAISSGRWSPDGAGLLTAGEDGVIKIWSRSGMLRSTVVQNEESIRCARWAPNSNSIVFCQGGHISIKPLAANSKIIRWRAHDGLVLSLSWSTQSNIIASGGEDFRFKIWDAQGANLFTSAAEEYAITSVAFNPEKDYLLWSYNTARFSSPRVGSIFNLSWSADGTQATCGTSTGQLIVAYAIEQQLVSGNLKATSKSRKSITLKDIATGTQDILDFPQRVVSFGLGYGHLVVATTNQVHIYNEKYINTPIIIDGRNDTRVIEVGKKYFMILDALSIWVYTYTGRLHLNPRYPGSQAQIPLLTWRSLSLGLDVLAIRDNSDPTVLHLFDLIPGASRQYDPHSLRAKQQLVQIAACRAGSPEDQFVAFIDSNRELFVSESRNLNSERIDEIYKIGTQLTAIMWASETNILVGVHDSCYSIWYCPGEGASDPTIIALTTITLDTTEFGKHITIESFEESVLTFRSAGALLPVNVNMYCEILHRALLEGQWQQALKICRMGQHSSLWATLAAVATRKHQLQISEEAYSAALQIDKVSYLQHLKALTPSSAEQMAENSLMLGRMLEAETILLHGKKIEQAVGLALRMHNWRRALEISQKHKGEQPELVPRVLQERRKYLKALQREEWDPLYLPLVAKEEADNTSE”, the protein production was “failed”.
For “MKLLNVLLLTTSLSVFYTYAETDYQWLRDDSRSEPAVKQFLAEHNRKTDHWFAPAKPLVQELVNEWQQTSQHKAPPPALIYANQQYNDIQWNGHRHIVKIGAQGQIEPLLNLSARAEPFDYYQLASWSLDRSVQSVALAEDTRGDEQFKLTIVRLADRTEQIVSETASTYFAWAADGKSLYYLSDLNGSTQLQRFELETGQSTRLAEWRSAEWLFSLYSASNPRYLVVQQNNENSTQQRLLDTQTGELMPWLRTTEPGLEYYADVLGETLYINSNHQGAFRLYRQPLHTKQDWQSVTTHKEIGSLSNFYLFDAGIVLVENQTLAPKVWVLDSQGEVRTHFELRDLGQVAWISRNGDAVSNRLRVRTMSMTEPASWHELDVAQLQWQQLSQDHYADFDPKQYQTQTVWVTQGAIQVPVTLAYRSDKLTPNSSVVLYGYGAYGVTMKPYFMPQIVSLLDRGMIYAIAHVRGGGYLGEAWHQAGAGLNKQNGIDDFLAAARYLTHFQQGERAIYTIGGSAGGTLVAAALNQQPNLFAGAVLQVPFVDVLASMSDTSQALTAQQYQEWGNPQQPEQRQVMQAYDPLSNLRAAPYPPTLVNVGWWDNRVPYWEGARYLARLSDVSQGAGPYLLSTDFQAGHASDRRQALEKQAREYAFFLTLDKTRKAGQ”, the protein production was “failed”.
With “MKLQGSNILGQEQIDLLTTRGLNFVWFPKQLETIYRFQYQNGAAYEFRYRAPIILILYLFLSFGIYQVLPTEQVLSWLSYYSWVGIIVLIAWILSFIKKLNQWFDYYVGIGSSAAVAITFILINVLENGQDNVLFHAAMMYAIVIIYGAVGMRFYTAIIAGWVGGLIGILVSTYLNGDIDWTFLNRTYTFSSFLGMTLAYATDRQHRENYLQNCMIELNRIELMQQAQQLSLLSQQDALTGLANRRYLDETLDNEWRRALRHETPLTIMMVDIDFFKPYNDSLGHLKGDQCLKDIATAISSIAARSGDLVARYGGEEFLLLFPMTNAQQAKIQAERLMNAIKKIAIVHPCSSVSPYVTISVGVATTIPRLNDSISAFVSRADHALYQAKTNGRNQYQIALNEEQIVDLT” the protein production was “failed”.
In the case of “MKLRHCLIIVFACCAALWSESPSIADDAVRTSLAGLEWHVVTDVWPPFRIEQETGLVGIDVDILKALSTSLGLRLRISRAPWGRCLKMLETGAADAMIGLAKSAEREVYIRYVPTSYYTCSPRFYILAGARRAVLTYDDLEGMRVGYVAQSRYFEPFDSDTKLQKYAVPTERQLLELLLAGRVDVMVGTDCQVDYELAEAGLLERVVVAPYRPDAHTRLYLGFSRKSRFVPRIALFDDAMRDLLEKGALKQIRASYLPDSSVSGR”, the protein production is reported as “failed”.
In the case of “MKLSQQSLSIIESAIQKAVGKYVCNCEQTVVTDIHLQPDQTSGQLNIYNDDDEELANVMVEEWATYDGDDFLENIEPGLRSILCRMKDAGDFDKVTILKPYSFVLVDEDKETVTELLLVDDDTMLVNDELLKGLDKELDDFLKELLEK”, the protein production is reported as “failed”.
In the case of “MKLTKGKVLLAGCMAMAMSHSVLAQDIKVAIVGAMSGPVAQYGDMQFTGARQAIADINASGGIKGDKLVGVEYDDACDPKQAVAVANKVINDGIRYVIGHLCSSSTQPASDIYEDEGVIMITPAATNADLTTRGYKMIMRTTGLDSDQGPTAAKYIVETIKPKRIAVVHDKQQYGEGLARSVRDSLKEQGAEVVLFEGVTAGDKDFSTLVARLKKENVDFVYFGGYYPEMGQILRQAKQAGLTARFMGPEGVGNSSLSNIAGEASEGMLVTLPKRYDQVPANQPIVDALKAKKLDPTGPFVWTTYAALQSLTTAMERTGSKEPADLANDLKTGKPVETVMGPLSWDDKGDLKGFEFGIFEWHADGSSTAVK”, the protein production is reported as “failed”.
In the case of “MKLYLILLPVLYLIVSYISIFKMHSVITRILRIVMGILLLFVVALTTLQFPKENWWVFVVLLLLVGNVEVTGFKELKDDKKGVSILNILSLLLFVIFIILIFILY”, the protein production is reported as “failed”.
With “MKMKLPLPKPSTKIAKKPQQLALLNQRLNQLSQQFKQALAQEDYQRAYECVHEVIHLVPDHRVAYMDLAYTALRLKRFDAAYQHYQKALELSEKNIDPNIYDGLTEVAYFLNQQEQVRHYGHLSLKTKQKQVASETMTALPHSAPPPISIESPEQNIIAFSLFGDQPRYCETAILNVIEARKIYPEWRCRFYVDESVPSSVLSRLQQHGAQLVLVSPEQQQISGLFWRFFVMDDPEVKRFLIRDADSLISMREREAVDEWLQSDRWFHVMRDYYSHTELILAGMWGGCTGIFHQIETSIRQYIASGRYLNERVIDQHFLRYCIWPTLQQSVITHDRYLFADNASRFPQDRDRQPDWRIQYQHVGMNESAATVSVTVNHPDAVRVKWVLLNQMKQIVCQYSAQVLSNRSIEIHLPENYVEKIRLKAWNLQIYPYEN” the protein production was “failed”.
In the case of “MKMLNRLDLGVPCLRAGFAGEQAFFLAMDGRLHVQQGDQRRVVALHDGDVLSACAAPGQADAAAWLLSAGEDGRVMRAGAGEPDCVASVPNKWVTALAVAADGALAYASGRTVWLAGGGGEAAALPQERPVQALRFSHGGRWLAVAGYDGLALYDRQAGGEPQRLDWKGMPTRVAFSPDDRFVLVATRDAVLHGWRLDTLRHFRMVGYPRAVGSWSWLAGGQWLATDGSAGAVLWPFEGEEGPIGSTPLALGERPDGEVSAVACHPARPWVAVGYADGLMVLESTDGALRRILGQAGRDRVACLAWDRAGARLAYGTPSGACGVIQADTGEEG”, the protein production is reported as “failed”.
With “MKMTAKMRREFPTAFLLLFLVPVMIPVGEAVWLDVPPTGTKCVSEEIQSNVVVLADYLIISEDHEVMPTISVKVTSPYGNNLHNMENVTHGQFAFTTQESGNYLACFWADEKSHGNKNVSINIDWRTGIAAKDWASIAKKEKIEGVELEIRKLEGAVEAIHENILYLRNREADMRTMSEKTNSRVAWYSIMSLGVCIAVSGFQVLYLKQYFEKKKLI” the protein production was “failed”.
In the case of “MKNDDLLMQIMMLDFAVQDSALFIDTHPCDKEAMNYFNEAATRLKAAKKEYQKQGHALVNREVGAYQNDYLSAPWPWVGDHKCGCTKNVCNTL”, the protein production is reported as “failed”.
For “MKNFNDEEHNSQLTDEVLPEPEDARVIANILKAVGVESFDTRVVAQLVEFVYKYIGEVLELSKTFAQYAEREDIRQDDVKLAISSLLSKSFTQPPSRDVLLQLCRERNAVPLPVVDTYVGIQLPPKEFQLTTRNYQLKRKTTTESVASQELSEATGNISIGESSLQPNEEESNTMNT”, the protein production was “failed”.
For “MKNGERARAGHGSPAAPGPTAGPGPAPAPGPTVVGREAEIAEIRSRIAADRSHSSVLIVEGDPGAGKSVLLDLAVRLTRGTGQRVLRAVGSESEASLAFAGLHQMLRPVLDDLGGLPARQRSALRTALGLAEDAEDAADTPDALLVGLAVLTLVSDLSEPAPLLVVVDDAQWIDRASLDVLSFLARRMAGEPVTLLMGVRAAAVLPGFDKGYERLEIGPLSGDAANRLLDEQPKRPTGRTRARILREAAGNPLALVELARATADREPEGSGVEGPLPVTDRLEGIFARHVRHLPEATRRALLLLAAADAADAPAAARGLPEAADTVWAPAERAGLVRQDGTGVSFRHPLVRSAVYHAAPFEQRRRAHLALARQLGEEPDRRAWHLAAAAVRPDEQVSAALRETAGRARRRGGHAAAAAALERAAELSPHRADQARLLADAADTAVFTGQLGWVEHLAAGARERSDDPALIGRAALATGRLLTLGPHHTAAFALLSRVADEAAATRSPRLLDALAAAAVVRYYSGEESQRQRIEALLADVPDSAAGGALRAWVLAVSDPSGAGASLAPALPRLIAAAKGEAGSLTALAVVAWLLDRTPLAARTFDEAFGRWQAHGPLPAGLACAAGWAYLEQGRWADARSVAAEIAEVASGAGLDHAEACARTLDATVLALLGEPAEARGSAERALALVAPLESRSVAVLARRALGLAAVAEGDYDSAYAQFRAAFTEDGDLVHYHVSPTVLAELAAAAVRRGHREPAARLLERSARHLGPGMSARLFLLVERGRALLAEPERAERHFRAALAGEAGEQWPFERAQTRLDYGEWLRRQRRVAEARPLLTGALDTFRRLGARPWIDRAKAELRAAGIEADAAAPGALTELSPQQQQIVRLAAHGLTNREIGERLFLSPRTVGSHLYRVFPKLGITARAQLRDLLDDALQATGSAQ”, the protein production was “failed”.
For “MKNGGVFVSIALLVTITLVMGVIFVNGWTDAPNAIATAVSTRVLKPNVAIWMAVVMNFLGALVMTFFNAQVAETISNIVSFDANGNASQVALAASLFSIVVWAVAAWYFGIPTSESHALIAGLTGSAMALGGLGAVNGSEWIKVLVGLVVSTVMGFGGGYLIAKLVVKAFSAVPRRKANKFFTVGQAFGAGANAFLHGAQDGQKFMGVFMLVLFYNNLVEKTGGGFVIPLWVMVLCSITMGIGTSVGGMRIIKSVGMDMVKLERYQGFTADLSTAICLFLASAFGIPVSTTHTKTTAIMGVGASKRISSVDWRIVKEMLIAWILTFPGCGLIAYVMSKLFIAIF”, the protein production was “failed”.
With “MKNKGLIATLILLTILVVGELFYNKSEKRLNLSEKQVVKIGILQYVTHDALDAIEKGVEDGLAQEGYKGKKVKLTVLNAEADQSKIQAMSKQLVNHHNDILIGIATPSAQGLAASTKDTPIIMGAVSDPLGAKLVTNMKKPTTNVTGLSNVVPTKQTVQLIKDITPNIKRIGILYASSEDNSVSQVTEFTKYAQKAGLEVLKYSVPSTNEIKTSMSVMTKKVDAVFVPQDNTIASAFRTVIVAANQANIPVYSSVDTMVEQGSIASVAQSQYGLGLETAKQAIKVLRGKPVKDVPVKVIDTGKPSLNLKAAKHLGIKIPKKIMKQAEITVKVDD” the protein production was “failed”.
